Like-named read-outs stand apart in the source and are kept apart here.

The text below walks through data of US20120148607A1 (ARGEN X N V, published 2012).

For assay [1], the target named is T1, Decoy c-Met (extracellular domain of human c-Met) (human, UniProt P08581 25-932).
T1 construct: extracellular domain; also called Decoy Met; monomeric Decoy Met
Description: SPR: mAb (0.5 µg/ml) kept 1 h at the given temperature, run over a CM-5 chip coupled with 15,000-17,000 RU Decoy c-Met; slope between 100 and 130 s at 30 µl/min in percent of the sample kept at 4 °C. A general note: Surface plasmon resonance follows binding to a sensor surface in real time, without labels.

In assay [2] the target is T2, recombinant dimeric c-Met (R&D systems, 358-MT/CF) (human, UniProt P08581 25-932).
T2 construct: Bought product; also called Fc-Met; recombinant c-Met
T2 sequence (P08581 25-932 limits assumed): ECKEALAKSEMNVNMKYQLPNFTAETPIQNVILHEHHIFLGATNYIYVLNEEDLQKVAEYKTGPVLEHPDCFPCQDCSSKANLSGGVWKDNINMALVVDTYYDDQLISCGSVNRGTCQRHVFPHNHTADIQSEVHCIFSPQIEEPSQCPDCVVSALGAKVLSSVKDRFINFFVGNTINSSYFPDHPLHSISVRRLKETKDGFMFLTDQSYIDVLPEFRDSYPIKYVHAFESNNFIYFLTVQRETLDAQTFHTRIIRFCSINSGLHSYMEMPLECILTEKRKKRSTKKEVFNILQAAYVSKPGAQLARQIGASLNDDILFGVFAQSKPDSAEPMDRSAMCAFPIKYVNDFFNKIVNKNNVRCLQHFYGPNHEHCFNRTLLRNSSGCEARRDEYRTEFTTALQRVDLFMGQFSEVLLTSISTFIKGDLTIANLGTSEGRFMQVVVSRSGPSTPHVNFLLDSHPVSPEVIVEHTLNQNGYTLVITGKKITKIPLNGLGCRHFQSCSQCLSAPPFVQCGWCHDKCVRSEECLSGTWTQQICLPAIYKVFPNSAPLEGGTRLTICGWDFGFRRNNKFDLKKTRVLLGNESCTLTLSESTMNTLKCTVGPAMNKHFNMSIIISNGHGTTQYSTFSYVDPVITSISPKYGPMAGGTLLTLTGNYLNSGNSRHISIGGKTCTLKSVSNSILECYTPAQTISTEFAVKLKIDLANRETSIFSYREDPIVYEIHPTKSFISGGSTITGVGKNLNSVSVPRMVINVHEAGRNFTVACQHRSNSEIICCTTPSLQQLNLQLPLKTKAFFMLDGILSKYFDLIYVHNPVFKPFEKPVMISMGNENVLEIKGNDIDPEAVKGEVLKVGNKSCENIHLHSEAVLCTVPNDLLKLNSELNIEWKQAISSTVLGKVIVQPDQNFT
Description: competition ELISA, mAb against 25 ng/ml biotinylated HGF on captured dimeric c-Met. The protocol: (§1) Competition with N-terminally biotinylated HGF for binding to immobilized c-Met was performed using an ELISA-based competition assay. Five μg/ml mouse anti-His antibodies (Serotech) was immobilized on a maxisorb plate and, after blocking with 1% casein in PBS for 2 h, 100 ng/ml recombinant dimeric c-Met was added and incubated for 1 h at room temperature. After washing, dilutions of the antibodies were added and allowed to bind to the captured c-Met for 30 minutes, before 25 ng/ml N-terminally biotinylated HGF (R&D systems, 294-HGN/CF) was added. Biotinylated HGF was incubated at room temperature for 1 h before washing. Horseradish-conjugated streptavidin (strep-HRP) was added and incubated for an additional hour. TMB was added and the plate read at 620 nm. An isotype control (hIgG1λ) was included as a control as well as murine 5D5 antibody. Competition was expressed as percentage competition as compared to the controls (strep-HRP only or hIgG1λ) and plotted against the concentration of antibodies. An IC₅₀ was calculated using GraphPad Prism (Table 10). Antibodies 13E6 and 20A11 only displaced HGF partially (about 50%), which may be related to the epitope these two mAbs recognize on the c-Met.
A general note: In an ELISA, binding on a coated surface is turned into a signal by an enzyme label.

In assay [3] the target is T2, recombinant dimeric c-Met (R&D systems, …). Briefly: competition ELISA: recombinant dimeric c-Met (100 ng/ml) captured by coated mouse anti-His antibody; antibody dilutions 30 min, then 25 ng/ml N-terminally biotinylated HGF (the competitor); strep-HRP, TMB, 620 nm; percent competition against the controls. Here is the method:
as §1

A further assay has as its target T3, c-Met SEMA ectodomain (human, UniProt P08581 27-515).
T3 construct: domain: SEMA; also called SEMA domain
Description: ELISA on immobilised c-Met ectodomains.

In assay [4] the target is T4, c-Met SEMA-PSI ectodomain (human, UniProt P08581 25-562, limits assumed).
T4 construct: domain: SEMA-PSI
T4 sequence (P08581 25-562 limits assumed): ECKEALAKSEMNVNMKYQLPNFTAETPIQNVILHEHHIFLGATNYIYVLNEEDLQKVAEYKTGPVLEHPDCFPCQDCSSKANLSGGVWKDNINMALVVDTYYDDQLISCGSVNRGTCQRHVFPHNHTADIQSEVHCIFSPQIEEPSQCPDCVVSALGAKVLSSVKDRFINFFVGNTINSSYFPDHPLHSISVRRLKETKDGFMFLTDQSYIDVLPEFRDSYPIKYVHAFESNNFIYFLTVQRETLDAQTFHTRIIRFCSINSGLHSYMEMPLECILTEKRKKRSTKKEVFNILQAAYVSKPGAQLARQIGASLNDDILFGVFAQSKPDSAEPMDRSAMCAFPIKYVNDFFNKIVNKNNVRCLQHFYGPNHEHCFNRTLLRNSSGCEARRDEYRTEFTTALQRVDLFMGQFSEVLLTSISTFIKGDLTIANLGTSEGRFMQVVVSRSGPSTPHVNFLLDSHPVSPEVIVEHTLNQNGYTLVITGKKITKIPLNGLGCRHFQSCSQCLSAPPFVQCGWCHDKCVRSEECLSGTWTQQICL
Briefly: ELISA on immobilised c-Met ectodomains.

Assay [5] deals with T5, c-Met SEMA-PSI-IPT1-2 ectodomain (human, UniProt P08581 25-741, limits assumed).
T5 construct: domain: SEMA-PSI-IPT1-2; also called IPT1-2 (as recognised domain)
T5 sequence (P08581 25-741 limits assumed): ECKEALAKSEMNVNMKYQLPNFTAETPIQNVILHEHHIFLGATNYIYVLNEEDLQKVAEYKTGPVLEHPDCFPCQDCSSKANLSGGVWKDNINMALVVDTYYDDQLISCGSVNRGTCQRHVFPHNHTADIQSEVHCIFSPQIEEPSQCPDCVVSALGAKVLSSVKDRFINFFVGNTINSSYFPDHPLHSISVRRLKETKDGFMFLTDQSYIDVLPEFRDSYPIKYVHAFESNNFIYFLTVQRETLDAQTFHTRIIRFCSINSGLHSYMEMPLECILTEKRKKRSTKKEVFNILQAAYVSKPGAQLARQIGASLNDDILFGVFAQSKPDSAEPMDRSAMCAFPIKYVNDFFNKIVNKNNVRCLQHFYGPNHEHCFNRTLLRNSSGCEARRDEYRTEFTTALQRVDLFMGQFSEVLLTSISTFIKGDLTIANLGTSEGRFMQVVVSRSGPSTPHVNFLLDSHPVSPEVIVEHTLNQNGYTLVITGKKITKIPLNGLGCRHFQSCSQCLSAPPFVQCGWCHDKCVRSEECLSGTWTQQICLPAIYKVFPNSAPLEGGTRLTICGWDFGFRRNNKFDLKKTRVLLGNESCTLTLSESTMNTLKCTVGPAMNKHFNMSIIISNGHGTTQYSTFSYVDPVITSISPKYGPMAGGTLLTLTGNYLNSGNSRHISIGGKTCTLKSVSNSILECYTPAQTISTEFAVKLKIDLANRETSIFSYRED
Briefly: ELISA on immobilised c-Met ectodomains.

The target of another assay is T6, c-Met IPT3-4 ectodomain (human, UniProt P08581 742-932, limits assumed).
T6 construct: domain: IPT3-4
T6 sequence (P08581 742-932 limits assumed): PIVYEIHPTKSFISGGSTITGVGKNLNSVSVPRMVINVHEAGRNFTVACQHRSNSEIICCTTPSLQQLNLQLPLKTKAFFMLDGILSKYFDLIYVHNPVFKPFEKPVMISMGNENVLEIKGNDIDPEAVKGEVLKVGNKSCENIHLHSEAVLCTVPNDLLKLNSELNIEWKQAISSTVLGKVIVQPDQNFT
Description: ELISA on immobilised c-Met ectodomains.

The target in assay [6] is T1, Decoy c-Met (extracellular domain of …). Description: binding ELISA, human c-Met (Decoy).
Assay [7] deals with T7, Rhesus (Maccaca mulatta, US20090191580-5) c-Met ECD (Rhesus (Maccaca mulatta)).
T7 construct: extracellular domain; also called Rhesus c-Met ECD; Rhesus ECD
Description: binding ELISA, Rhesus c-Met ECD immobilised (1 µg/ml). Here is the method:
Cross reactivity to Rhesus (Maccaca mulatta, US20090191580_{—}5) c-Met ECD and mouse c-Met (R&D systems cat no: 527-ME) was performed in a binding ELISA. Rhesus ECD was immobilized in PBS (1 μg/ml) on a 96-well maxisorb plate and incubated at 4° C. over night. After blocking with 1% casein in PBS, the antibodies in dilutions starting with 10 μg/ml were added and allowed to bind for 1 h at room temperature. The plate was washed and a goat anti-human Fcγ antibody (Jackson) was added and incubated for 1 h at room temperature. After washing, TMB was added and the plate read at 620 nm

Assay [8] deals with T8, human c-Met ECD (aa 25-932) with His tag (human, UniProt P08581 25-932).
T8 construct: range 25-932; Soluble protein from HEK293 cells; also called human c-Met (WT); not shown: His tag
T8 sequence (P08581 25-932 limits assumed): as the sequence (P08581 25-932 limits assumed) above
Briefly: ELISA: 200 ng of the c-Met ECD protein coated on maxisorb plates; mAb dilutions 1 h RT; HRP-conjugated goat anti-human antibody, TMB, OD 620 nm.

In assay [9] the target is T1, Decoy c-Met (extracellular domain of …). Briefly: SPR: mAb (0.5 µg/ml) kept 1 h at the given temperature, run over a CM-5 chip coupled with 15,000-17,000 RU Decoy c-Met; slope between 100 and 130 s at 30 µl/min in percent of the sample kept at 4 °C. The source holds these as a separate data set.

T1 sequence (P08581 25-932): as the sequence (P08581 25-932 limits assumed) above
T3 sequence (P08581 27-515): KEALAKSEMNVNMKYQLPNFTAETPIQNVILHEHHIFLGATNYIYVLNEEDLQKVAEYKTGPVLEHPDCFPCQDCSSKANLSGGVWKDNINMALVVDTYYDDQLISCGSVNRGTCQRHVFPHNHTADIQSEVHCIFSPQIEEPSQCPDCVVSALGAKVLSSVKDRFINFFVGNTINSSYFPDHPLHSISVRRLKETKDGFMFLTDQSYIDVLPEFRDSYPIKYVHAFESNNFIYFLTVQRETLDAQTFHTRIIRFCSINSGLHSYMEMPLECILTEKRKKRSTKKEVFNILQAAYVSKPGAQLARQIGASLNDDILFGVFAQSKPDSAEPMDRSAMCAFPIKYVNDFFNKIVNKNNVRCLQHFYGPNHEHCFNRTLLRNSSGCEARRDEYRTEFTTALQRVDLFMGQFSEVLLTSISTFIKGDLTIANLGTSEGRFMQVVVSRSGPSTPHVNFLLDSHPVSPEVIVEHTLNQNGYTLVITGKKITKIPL

B1: 53E3 (antibody, V domains shown)
VH: QVQLQESGPGLVKPSQTLSLTCTVSGGSITTNYYYWSWIRQSPGKGLEWIGVIAYEGSTDYSPSLKSRVTISRDTSKNQFSLQLSSVTAEDTAVYYCARDVRVIATGWATANALDAWGQGTLVTVSS
VL: QSVLTQPPSVSGSPGQTVTISCAGTSSDVGYGNYVSWYQQLPGTAPKLMIFAVSYRASGIPDRFSGSKSGNTASLTISGLQSEDEADYYCASYRSSNNAAVFGGGTKLTVL
notes: also called germlined variant of 36C4
B1: the binding result in [1] is recorded as “binds”.

B2: 55A12-54E (antibody, V domains shown)
VH: QVQLVESGPGLVKPSQTLSLTCTVSGGSISTNYYYWSWIRQSPGKGLEWIGVIAYEGSTDYSPSLKSRVTISRDTSKNQFSLKLSSVTAEDTAVYYCARDVRVIATGWATANALDAWGQGTLVTVSS
VL: QSALTQPPSVSGSPGQSVTISCAGTSSDVGYGNYVSWYQQPPGTAPKLLIFAVSYRASGVPDRFSGSKSGNTASLTISGLQAEDEADYYCASYRSSNNAAVFGGGTKLTVL
notes: as for B1
Take B2: the binding result in assay [1] is “binds”.

B3: 53A11 (antibody, V domains shown)
VH: QVQLQESGPGLVKPSQTLSLTCTVSGGSITTNYYYWSWIRQSPGKGLEWIGVIAYDASTDYSPSLKSRVTISRDTSKNQFSLQLSSVTAEDTAVYYCARDVRVIATGWATANALDAWGQGTLVTVSS
VL: QSVLTQPPSVSGSPGQTVTISCAGTSSDVGYGNYVSWYQQPPGTAPKLMIFAVSYRASGIPDRFSGSKSGNTAFLTISGLQSEDEADYYCASYRSSNNAAVFGGGTKLTVL
notes: as for B1
In the case of B3, the binding result in assay [1] is given as “binds”.

B4: 20F1 mAb (antibody, V domains shown)
VH: EVQVQESGPGLVKPSQTLSLTCTVSGGSMTGNYYAWSWIRQPPGKGLEWMGVIAYDGSTYYSPSLKSRTSISRDTSKNQFSLQLSSVSPEDTAVYYCARGPGWYSGSRNDYWGQGTQVTVSS
VL: QSALTQPPSVSGSPGKTVTISCTGTNSDVGYGNYVSWYQQLPGMAPKLLIYDVNRRASGIADRFSGSKSGNTASLTISGLQSEDEGDYHCASYRSANNAVFGGGTHLFVL
Regarding B4, the IC50 in [2] was 0.36 nM.

B5: murine 5D5 antibody (antibody, V domains shown)
VH: QVQLQQSGPELVRPGASVKMSCRASGYTFTSYWLHWVKQRPGQGLEWIGMIDPSNSDTRFNPNFKDKATLNVDRSSNTAYMLLSSLTSADSAVYYCATYGSYVSPLDYWGQGTSVTVSS
VL: DIMMSQSPSSLTVSVGEKVTVSCKSSQSLLYTSSQKNYLAWYQQKPGQSPKLLIYWASTRESGVPDRFTGSGSGTDFTLTITSVKADDLAVYYCQQYYAYPWTFGGGTKLEIK
Turning to B5, the “IC50 (read off the curve)” value in assay [3] is around 0.8 nM.

B6: 34H7 mAb (antibody, V domains shown)
VH: ELQLVESGGALVQPGGSLRLSCVESGFTFSSYAMSWVRQAPGKGLEWVSGIYKGGGPKYANSVKGRFTISRDNAKNTLYLQMNSLKPEDTAVYYCAKSGYGSSLGDFGSWGQGTQVTVSS
VL: QAGLTQLSSMSGSPGQTVTITCTGSSSNIGGGYYLSWYQHLPGTAPKLLIYSNINRASGVPDRFSGSTSGISASLTITGLQAEDEADYYCSSWDDSVSGPVFGGGTSLTVL
As for B6, the “IC50 (read off the curve)” value in [3] was around 0.2 nM.

B7: 20A11 mAb (antibody, V domains shown)
VH: QVQLVESGGGLVQPGGSLRLSCAASGFTFDDYAMSWVRQAPGKGLEWVSAISWNGSSTYYAESMKGRFTISRDNAKNTLYLQMNSLKSEDTAVYYCAKDLIGSHDYWGQGTQVTVSS
VL: QAVLTQPPSVSGTLGKTLTISCAGTSSDVGYGNYVSWYQQLPGTAPKLLIYAVSTRASGIPDRFSGSKSGNTASLTISGLQSEDEADYYCASYRSSNNYAFGAGTKLTVL
Take B7: the binding result (with c-Met SEMA ectodomain; in assay [4]; in assay [5]; in the assay with c-Met IPT3-4 ectodomain) was “no binding (tested: 1 µg/ml)” each time. Further, the EC50 in [6] was found to be 4.3 nM; in assay [7] it was 3.4 nM.

B8: 13E6 mAb (antibody, V domains shown)
VH: QVQLQESGGDLVQPGGSLRLSCAASGFTFDDYVMNWVRQAPGKGLEWISAINWNGGSTYYAESMKGRFTISRDNAKNTLYLQMYSLQSDDTAVYYCVKDTVVSGNGYWGQGTQVTVSS
VL: QSVLTQPPSVSGTLGKTVTISCAGTSSDIGDYNYVSWYQQLPGTAPKLLIYDVNKRASGIPDRFSGSKSGNTASLSISGLQSEDEADYYCASYRSRNDYAFGGGTKLTVL
For B8, the binding result (in the assay with c-Met SEMA ectodomain; in assay [4]; in [5]; with c-Met IPT3-4 ectodomain) was “no binding (tested: 1 µg/ml)” throughout. Also, the EC50 in assay [6] and in assay [7] was 0.19 nM throughout. In addition, in assay [8], the “EC50 (read off the curve)” value is around 1 nM.

B9: 12G4 mAb (antibody, V domains shown)
VH: QLQLVESGGGMAQPGGSLKLSCAASGFTFDDYAMTWVRQAPGKGLEWLSTISWNDINTYYAESMKDRFTISRDNAKNTLYLQMNSLESEDTAVYYCAKRRDNYYGTSGEYDYWGQGTQVTVSS
VL: QSALTQPPSVSGTLGKTVTISCAGTSSDIGNYNYVSWYQQLPGTAPKLLIYEVNKRPSGIPDRFSGSKSGNTASLSISGLQSEDEADYYCASYRSSNNVVFGGGTKLTVL
On to B9, for which the EC50 in assay [6] came out at 0.42 nM; in assay [7], 0.34 nM. In assay [2], the IC50 was found to be 0.26 nM.

B10: 38H10 mAb (antibody, V domains shown)
VH: EVQLVQPGVELRNPGASVKVSCKASGYIFTMNSIDWVRQAPGQGLEWMGRIDPEDGGTKYAQKFQGRVTFTADTSTSTAYVELNSLRSEDTAVYYCARVDDYYLGYDYWGQGTQVTVSS
VL: EIVMTQSPSSVTASAGEKVTINCKSSQSVLWRSNQKNYLAWYQQRLGQSPRLLISWASIRESGVPDRFSGSGSTTDFTLTISSFQPEDAAVYYCQQGYSFPYTFGSGTRLEIK
As for B10, the EC50 was 0.19 nM in [6] and 0.17 nM in [7]. Also, the “IC50 (read off the curve)” value in [3] was around 0.03 nM.

B11: 56F3 (antibody, V domains shown)
VH: EVQLVQPGAEVKKPGASVKVSCKASGYIFTMNSIDWVRQAPGQGLEWMGRIDPEEGGTKYAQKFQGRVTMTADTSTSTAYMELSSLRSDDTAVYYCARVDDYYLGYDYWGQGTQVTVSS
VL: DIVMTQSPDSLAASLGERVTINCKSSQSVLFSSNQKNYLAWYQQRPGQSPKLLIYWASIRESGVPDRFSGSGSGTDFTLTISSLQAEDVAVYYCQQGYSFPYSFGSGTRLEIK
notes: also called germlined variant of 48A2
As to B11, the binding result in assay [9] was “binds”.

One may read the IC50 as the concentration at which inhibition is half-maximal. The EC50 is the concentration needed to bring the measured effect to its halfway point. Read a high EC50 as weaker potency. One may read the EC50 (read off the curve) as the concentration that produces a half-maximal response.
